The Human Domainome abundance scans (Beltran et al. 2025)
± gives the uncertainty stated by the source.

B1: POU domain, class 3, transcription factor 2, residues 262 to 338; numbered along this chain, P20265 (parent)
chain: EDTPTSDDLEQFAKQFKQRRIKLGFTQADVGLALGTLYGNVFSQTTICRFEALQLSFKNMCKLKPLLNKWLEEADSS

Variants of: B1
Test: abundance fitness (aPCA) (normalised: wild type 0, dead -1); higher = more abundant; growth selection in yeast, the domain comes from the species named
Settings: Homo sapiens

Q: Which abundance fitness does the source give for EDTPTSDDLEQFAKQFKQRRIKLGFTQADVGLALGTLYGNVFSQTTICRFEALQLSFKNMCKLKPLLNKWYEEADSS [L71Y] here?
A: -0.168 ± 0.17

Q: For EDTPTSDDLEQFAKQFKQRRIKLGFTQADVGLALGTLYGNVFSQTTICRFEALQLSFKNMCKLKPLLNKWSEEADSS [L71S], which abundance fitness is on record?
A: -0.207 ± 0.075

Q: For EDTPTSDDLEQFAKQFKQRRIKLGFTQADVGLALGTLYGNVFSQTTICRFEALQLSFKNMCKLKPLLNKWGEEADSS [L71G], which abundance fitness is on record?
A: -0.445 ± 0.088

Q: For EDTPTSDDLEQFAKQFKQRRIKLGFTQADVGLALGTLYGNVFSQTTICRFEALQLSFKNMCKLKPLLNKWKEEADSS [L71K], which abundance fitness is on record?
A: -0.559 ± 0.2

Q: With EDTPTSDDLEQFAKQFKQRRIKLGFTQADVGLALGTLYGNVFSQTTICRFEALQLSFKNMCKLKPLLNKWEEEADSS [L71E] as the variant, how does the abundance fitness read?
A: -0.598 ± 0.49

Q: With EDTPTSDDLEQFAKQFKQRRIKLGFTQADVGLALGTLYGNVFSQTTICRFEALQLSFKNMCKLKPLLNKWCEEADSS [L71C] as the variant, how does the abundance fitness read?
A: -0.847 ± 0.37

Q: For EDTPTSDDLEQFAKQFKQRRIKLGFTQADVGLALGTLYGNVFSQTTICRFEALQLSFKNMCKLKPLLNKWAEEADSS [L71A], which abundance fitness is on record?
A: -0.504 ± 0.16

Q: For EDTPTSDDLEQFAKQFKQRRIKLGFTQADVGLALGTLYGNVFSQTTICRFEALQLSFKNMCKLKPLLNKWIEEADSS [L71I], which abundance fitness is on record?
A: -0.422 ± 0.37

Q: With EDTPTSDDLEQFAKQFKQRRIKLGFTQADVGLALGTLYGNVFSQTTICRFEALQLSFKNMCKLKPLLNKWFEEADSS [L71F] as the variant, how does the abundance fitness read?
A: -0.699 ± 0.22

Q: With EDTPTSDDLEQFAKQFKQRRIKLGFTQADVGLALGTLYGNVFSQTTICRFEALQLSFKNMCKLKPLLNKWREEADSS [L71R] as the variant, how does the abundance fitness read?
A: -0.427 ± 0.077

Q: With EDTPTSDDLEQFAKQFKQRRIKLGFTQADVGLALGTLYGNVFSQTTICRFEALQLSFKNMCKLKPLLNKWMEEADSS [L71M] as the variant, how does the abundance fitness read?
A: 0.067 ± 0.12

Q: For EDTPTSDDLEQFAKQFKQRRIKLGFTQADVGLALGTLYGNVFSQTTICRFEALQLSFKNMCKLKPLLNKWVEEADSS [L71V], which abundance fitness is on record?
A: -0.089 ± 0.12

Q: Which abundance fitness does the source give for EDTPTSDDLEQFAKQFKQRRIKLGFTQADVGLALGTLYGNVFSQTTICRFEALQLSFKNMCKLKPLLNKWWEEADSS [L71W] here?
A: -0.465 ± 0.12

Q: With EDTPTSDDLEQFAKQFKQRRIKLGFTQADVGLALGTLYGNVFSQTTICRFEALQLSFKNMCKLKPLLNKWLECADSS [E73C] as the variant, how does the abundance fitness read?
A: 0.024 ± 0.12

Q: With EDTPTSDDLEQFAKQFKQRRIKLGFTQADVGLALGTLYGNVFSQTTICRFEALQLSFKNMCKLKPLLNKWLEAADSS [E73A] as the variant, how does the abundance fitness read?
A: -0.145 ± 0.081

Q: Which abundance fitness does the source give for EDTPTSDDLEQFAKQFKQRRIKLGFTQADVGLALGTLYGNVFSQTTICRFEALQLSFKNMCKLKPLLNKWLMEADSS [E72M] here?
A: -0.117 ± 0.054

Q: For EDTPTSDDLEQFAKQFKQRRIKLGFTQADVGLALGTLYGNVFSQTTICRFEALQLSFKNMCKLKPLLNKWLNEADSS [E72N], which abundance fitness is on record?
A: -0.094 ± 0.063

Q: Which abundance fitness does the source give for EDTPTSDDLEQFAKQFKQRRIKLGFTQADVGLALGTLYGNVFSQTTICRFEALQLSFKNMCKLKPLLNKWLYEADSS [E72Y] here?
A: -0.217 ± 0.085

Q: With EDTPTSDDLEQFAKQFKQRRIKLGFTQADVGLALGTLYGNVFSQTTICRFEALQLSFKNMCKLKPLLNKWLKEADSS [E72K] as the variant, how does the abundance fitness read?
A: -0.12 ± 0.087

Q: For EDTPTSDDLEQFAKQFKQRRIKLGFTQADVGLALGTLYGNVFSQTTICRFEALQLSFKNMCKLKPLLNKWLAEADSS [E72A], which abundance fitness is on record?
A: -0.017 ± 0.037

Q: For EDTPTSDDLEQFAKQFKQRRIKLGFTQADVGLALGTLYGNVFSQTTICRFEALQLSFKNMCKLKPLLNKWLGEADSS [E72G], which abundance fitness is on record?
A: -0.178 ± 0.033

Q: For EDTPTSDDLEQFAKQFKQRRIKLGFTQADVGLALGTLYGNVFSQTTICRFEALQLSFKNMCKLKPLLNKWLTEADSS [E72T], which abundance fitness is on record?
A: -0.073 ± 0.042

Q: With EDTPTSDDLEQFAKQFKQRRIKLGFTQADVGLALGTLYGNVFSQTTICRFEALQLSFKNMCKLKPLLNKWLREADSS [E72R] as the variant, how does the abundance fitness read?
A: -0.068 ± 0.03

Q: With EDTPTSDDLEQFAKQFKQRRIKLGFTQADVGLALGTLYGNVFSQTTICRFEALQLSFKNMCKLKPLLNKWLIEADSS [E72I] as the variant, how does the abundance fitness read?
A: -0.102 ± 0.058

Q: With EDTPTSDDLEQFAKQFKQRRIKLGFTQADVGLALGTLYGNVFSQTTICRFEALQLSFKNMCKLKPLLNKWLLEADSS [E72L] as the variant, how does the abundance fitness read?
A: 0.004 ± 0.035

Q: With EDTPTSDDLEQFAKQFKQRRIKLGFTQADVGLALGTLYGNVFSQTTICRFEALQLSFKNMCKLKPLLNKWLQEADSS [E72Q] as the variant, how does the abundance fitness read?
A: 0.003 ± 0.051

Q: With EDTPTSDDLEQFAKQFKQRRIKLGFTQADVGLALGTLYGNVFSQTTICRFEALQLSFKNMCKLKPLLNKWLWEADSS [E72W] as the variant, how does the abundance fitness read?
A: -0.177 ± 0.043

Q: For EDTPTSDDLEQFAKQFKQRRIKLGFTQADVGLALGTLYGNVFSQTTICRFEALQLSFKNMCKLKPLLNKWLFEADSS [E72F], which abundance fitness is on record?
A: -0.191 ± 0.066

Q: For EDTPTSDDLEQFAKQFKQRRIKLGFTQADVGLALGTLYGNVFSQTTICRFEALQLSFKNMCKLKPLLNKWLPEADSS [E72P], which abundance fitness is on record?
A: -0.655 ± 0.11

Q: With EDTPTSDDLEQFAKQFKQRRIKLGFTQADVGLALGTLYGNVFSQTTICRFEALQLSFKNMCKLKPLLNKWLSEADSS [E72S] as the variant, how does the abundance fitness read?
A: -0.13 ± 0.038

Q: Which abundance fitness does the source give for EDTPTSDDLEQFAKQFKQRRIKLGFTQADVGLALGTLYGNVFSQTTICRFEALQLSFKNMCKLKPLLNKWLVEADSS [E72V] here?
A: 0.017 ± 0.035

Q: With EDTPTSDDLEQFAKQFKQRRIKLGFTQADVGLALGTLYGNVFSQTTICRFEALQLSFKNMCKLKPLLNKWLCEADSS [E72C] as the variant, how does the abundance fitness read?
A: -0.042 ± 0.056

Q: With EDTPTSDDLEQFAKQFKQRRIKLGFTQADVGLALGTLYGNVFSQTTICRFEALQLSFKNMCKLKPLLWKWLEEADSS [N68W] as the variant, how does the abundance fitness read?
A: 0.004 ± 0.1

Q: Which abundance fitness does the source give for EDTPTSDDLEQFAKQFKQRRIKLGFTQADVGLALGTLYGNVFSQTTICRFEALQLSFKNMCKLKPLLTKWLEEADSS [N68T] here?
A: 0.046 ± 0.085

Q: With EDTPTSDDLEQFAKQFKQRRIKLGFTQADVGLALGTLYGNVFSQTTICRFEALQLSFKNMCKLKPLLVKWLEEADSS [N68V] as the variant, how does the abundance fitness read?
A: 0.085 ± 0.077
